This test has as its target T1, biotinylated mouse Robo3 FN1–3 (Avi-tagged) (mouse, UniProt Q9Z2I4 558-869, biotin on the Avi-tag (BirA)).
T1 chain: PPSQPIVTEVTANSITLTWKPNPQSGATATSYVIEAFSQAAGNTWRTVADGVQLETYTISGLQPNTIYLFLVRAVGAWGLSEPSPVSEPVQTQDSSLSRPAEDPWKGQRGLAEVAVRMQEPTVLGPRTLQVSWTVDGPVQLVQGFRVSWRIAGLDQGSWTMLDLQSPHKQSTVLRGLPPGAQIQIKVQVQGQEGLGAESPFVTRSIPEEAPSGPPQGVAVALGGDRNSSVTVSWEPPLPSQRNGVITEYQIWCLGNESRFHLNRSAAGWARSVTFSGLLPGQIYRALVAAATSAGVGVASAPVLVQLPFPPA
Description: SPR.

B1: mouse NELL2 EGF1–6 R448A/Y450A (domain or fragment)
chain: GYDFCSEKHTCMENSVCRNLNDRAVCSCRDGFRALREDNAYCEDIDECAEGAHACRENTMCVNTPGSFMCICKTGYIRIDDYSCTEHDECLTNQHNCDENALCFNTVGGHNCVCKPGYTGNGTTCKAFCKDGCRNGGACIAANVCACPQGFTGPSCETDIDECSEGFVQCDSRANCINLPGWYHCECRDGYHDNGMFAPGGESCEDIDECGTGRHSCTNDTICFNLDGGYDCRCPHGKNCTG
By Kd is commonly meant the concentration at which binding is half-saturated. A lower Kd goes with higher affinity. With B1, the Kd came to 87 µM.

B2: mouse NELL2 EGF1–6, wild type (domain or fragment)
chain: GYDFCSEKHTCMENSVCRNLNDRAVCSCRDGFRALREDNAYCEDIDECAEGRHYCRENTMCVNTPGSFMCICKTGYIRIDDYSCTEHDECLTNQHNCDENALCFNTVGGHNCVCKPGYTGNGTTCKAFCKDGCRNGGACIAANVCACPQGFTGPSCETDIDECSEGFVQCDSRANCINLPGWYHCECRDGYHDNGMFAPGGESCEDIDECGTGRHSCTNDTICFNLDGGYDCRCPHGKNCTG
On to B2, for which the Kd worked out at 0.71 µM.

B3: mouse NELL2 EGF1–6 L498A/F500A (domain or fragment)
chain: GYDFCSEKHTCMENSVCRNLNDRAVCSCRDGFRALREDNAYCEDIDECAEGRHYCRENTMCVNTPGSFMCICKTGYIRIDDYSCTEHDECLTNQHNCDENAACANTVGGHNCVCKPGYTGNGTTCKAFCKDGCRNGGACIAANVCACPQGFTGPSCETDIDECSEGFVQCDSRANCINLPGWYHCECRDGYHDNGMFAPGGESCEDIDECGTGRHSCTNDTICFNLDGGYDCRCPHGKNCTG
As to B3, the dissociation constant (Kd) was roughly 400 µM.

The values are drawn from paper PMC7083938 (2020).
